Results on two substances are retold here after paper PMC10700143.

Assay [1] addresses W89A mutant HKU1-A spike protein ectodomain (human coronavirus HKU1 (serotype A)). The assay can be described thus: cryo-EM structure; 3 µM wild-type or W89A spike trimer with 300 µM 9-O-acetylated disialoside, incubated at room temperature for about 10 min before vitrification; single-particle analysis.
Assay [2] deals with HKU1-A spike protein ectodomain (strain Caen1), trimeric, furin cleavage site mutated, with GCN4 trimerization motif (human coronavirus HKU1 (serotype A, strain Caen1)). As to the kind of experiment: cryo-EM structure; apo: 4.3 µM HKU1 spike trimer without ligand, applied to grids at 4 °C; single-particle analysis, C3 symmetry imposed.
For assay [3] the target is unchanged. As to the kind of experiment: cryo-EM structure; 3 µM wild-type or W89A spike trimer with 300 µM 9-O-acetylated disialoside, incubated at room temperature for about 10 min before vitrification; single-particle analysis.

As a reminder, the stoichiometry N is a count of units in the complex or per binding partner. On to “W89A mutant HKU1-A spike protein ectodomain (domain or fragment)”, for which, in assay [1], the stoichiometry N came to 3.
Consider “HKU1-A spike protein ectodomain (strain Caen1), trimeric, furin cleavage site mutated, with GCN4 trimerization motif (domain or fragment)”, for which the stoichiometry N in assay [2] and in assay [3] was 3 throughout.
